From the supplement of paper PMC9732359
± gives the uncertainty stated by the source.

Test: protein stability index of a GFP-peptide fusion (yeast GPS) (PSI 1-4); higher = more stable; sorted into four equal gates, so the index is relative within each strain
Method in brief: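 The protein stability index combines read frequencies across sorting gates, each weighted by its gate number and then summed. To obtain those frequencies, a pooled yeast library of GFP fusions to tiled 17-residue yeast protein peptides, on a plasmid also expressing Cherry, was grown to mid-log phase in leucine-free medium. The cells were sorted into four equal gates by GFP/Cherry ratio before plasmid amplification by PCR and Illumina sequencing.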

## QKLPQYIIQGSNTNDNI [RGR1]
doa10∆
  protein stability index: 3.14 ± 0.1
pdr5∆
  protein stability index: 3.09 ± 0.098
san1∆
  protein stability index: 2.48 ± 0.18
ubr1∆
  protein stability index: 3.25 ± 0.091

## AENSHTQPKATSTGTTI [PUP1]
doa10∆
  protein stability index: 3.17 ± 0.073
pdr5∆
  protein stability index: 3.1 ± 0.071
san1∆
  protein stability index: 3.07 ± 0.06
ubr1∆
  protein stability index: 3.26 ± 0.057

## NPLAKTMADAVRELGIL [SEC65]
doa10∆
  protein stability index: 2.78 ± 0.058
pdr5∆
  protein stability index: 2.3 ± 0.06
san1∆
  protein stability index: 2.42 ± 0.075
ubr1∆
  protein stability index: 1.84 ± 0.053

## VEEKPGDRGALARASGN [RPL2A]
doa10∆
  protein stability index: 2.95 ± 0.12
pdr5∆
  protein stability index: 3.23 ± 0.13
san1∆
  protein stability index: 3.37 ± 0.092
ubr1∆
  protein stability index: 3.13 ± 0.11

## DGMYSESKLSLETLFNR [FAS2]
doa10∆
  protein stability index: 3.39 ± 0.075
pdr5∆
  protein stability index: 3.25 ± 0.09
san1∆
  protein stability index: 3.32 ± 0.046
ubr1∆
  protein stability index: 3.33 ± 0.048

## PVRPVRVRHEDVETVKR [RPC53]
doa10∆
  protein stability index: 2.9 ± 0.077
pdr5∆
  protein stability index: 2.97 ± 0.048
san1∆
  protein stability index: 2.88 ± 0.055
ubr1∆
  protein stability index: 3.04 ± 0.037

## NTQLHGPSATDPETTAT [RGR1]
doa10∆
  protein stability index: 3.01 ± 0.094
pdr5∆
  protein stability index: 2.89 ± 0.088
san1∆
  protein stability index: 2.65 ± 0.073
ubr1∆
  protein stability index: 2.81 ± 0.068

## KNFSPTKRVEKPQLKFK [RRP6]
doa10∆
  protein stability index: 2.33 ± 0.093
pdr5∆
  protein stability index: 2.17 ± 0.1
san1∆
  protein stability index: 2.39 ± 0.1
ubr1∆
  protein stability index: 3.21 ± 0.075

## EETNVDIGVLEEYARRL [SMC4]
pdr5∆
  protein stability index: 3.36 ± 0.24
san1∆
  protein stability index: 3.64 ± 0.072
ubr1∆
  protein stability index: 3.48 ± 0.1

## DLQRLKPLGLDRYGNRY [ITC1]
ubr1∆
  protein stability index: 3.05 ± 0.13

## ADTLDPALLRPGRLDRK [RPT3]
doa10∆
  protein stability index: 3.57 ± 0.17
pdr5∆
  protein stability index: 3.56 ± 0.16
san1∆
  protein stability index: 3.26 ± 0.23
ubr1∆
  protein stability index: 3.3 ± 0.2

## KAELEKQKSWVPSYIHV [YIL149C/MLP2]
doa10∆
  protein stability index: 2.09 ± 0.052
pdr5∆
  protein stability index: 2.33 ± 0.041
san1∆
  protein stability index: 2.15 ± 0.077
ubr1∆
  protein stability index: 2.31 ± 0.035

## DLWNNFGNIMDNLLEMS [RRP6]
doa10∆
  protein stability index: 3.42 ± 0.094
pdr5∆
  protein stability index: 2.88 ± 0.076
san1∆
  protein stability index: 3.21 ± 0.058
ubr1∆
  protein stability index: 2.95 ± 0.11

## KGQGPFTLTYDIIETFS [YMR129W/POM152]
doa10∆
  protein stability index: 1.95 ± 0.045
pdr5∆
  protein stability index: 2.31 ± 0.064
san1∆
  protein stability index: 2.02 ± 0.057
ubr1∆
  protein stability index: 2.48 ± 0.044

## LLESYKTLSLKSMASAF [RPN7]
doa10∆
  protein stability index: 1.67 ± 0.093
pdr5∆
  protein stability index: 2.31 ± 0.11
san1∆
  protein stability index: 1.89 ± 0.14
ubr1∆
  protein stability index: 1.12 ± 0.033

## SKPSTASPSAHTSSSDG [RPN4]
doa10∆
  protein stability index: 2.71 ± 0.064
pdr5∆
  protein stability index: 3.04 ± 0.064
san1∆
  protein stability index: 2.66 ± 0.05
ubr1∆
  protein stability index: 2.92 ± 0.045

## NQSFIQQKANLLSSSNF [COR1]
doa10∆
  protein stability index: 2.17 ± 0.067
pdr5∆
  protein stability index: 1.91 ± 0.069
san1∆
  protein stability index: 2.04 ± 0.083
ubr1∆
  protein stability index: 1.76 ± 0.042

## KLPLLNESLIPLINLAL [YML103C/NUP188]
doa10∆
  protein stability index: 1.69 ± 0.061
pdr5∆
  protein stability index: 2.16 ± 0.068
san1∆
  protein stability index: 1.73 ± 0.079
ubr1∆
  protein stability index: 1.98 ± 0.054

## KGPLLIERIGHLLSINY [PCI8]
doa10∆
  protein stability index: 2.35 ± 0.11
pdr5∆
  protein stability index: 2.71 ± 0.15
ubr1∆
  protein stability index: 3.11 ± 0.15

## NLRLLVEENRVRYTTSV [DLS1]
doa10∆
  protein stability index: 2.33 ± 0.071
pdr5∆
  protein stability index: 2.65 ± 0.056
san1∆
  protein stability index: 2.08 ± 0.079
ubr1∆
  protein stability index: 2.43 ± 0.048

## KVVIPNLLCYYNLRSLN [RPN3]
doa10∆
  protein stability index: 2.44 ± 0.19
pdr5∆
  protein stability index: 2.54 ± 0.081
san1∆
  protein stability index: 2.74 ± 0.13
ubr1∆
  protein stability index: 2.65 ± 0.1

## WGGFPLDISVFLLEKAG [TAF14]
doa10∆
  protein stability index: 3.2 ± 0.11
pdr5∆
  protein stability index: 3.38 ± 0.067
san1∆
  protein stability index: 3.26 ± 0.06
ubr1∆
  protein stability index: 3.15 ± 0.075

## LEVANDLQLLYVESDED [IRR1]
doa10∆
  protein stability index: 1.43 ± 0.13
pdr5∆
  protein stability index: 1.21 ± 0.091
san1∆
  protein stability index: 1.42 ± 0.2
ubr1∆
  protein stability index: 1.13 ± 0.046

## VLKACGILSDLEIMQLV [RET1]
doa10∆
  protein stability index: 1.56 ± 0.11
san1∆
  protein stability index: 1.46 ± 0.22
ubr1∆
  protein stability index: 2.56 ± 0.082

## DFDNIEFKKIPRVKGFK [SEC65]
doa10∆
  protein stability index: 2.84 ± 0.14
pdr5∆
  protein stability index: 3.11 ± 0.13
san1∆
  protein stability index: 2.82 ± 0.078
ubr1∆
  protein stability index: 3.13 ± 0.088

## ELTDNMSDFVPIDAGLN [MCD1]
doa10∆
  protein stability index: 3.12 ± 0.11
pdr5∆
  protein stability index: 2.99 ± 0.1
san1∆
  protein stability index: 2.74 ± 0.081
ubr1∆
  protein stability index: 3.21 ± 0.12

## AGENAPSIVFIDEIDAI [RPT2]
doa10∆
  protein stability index: 2.03 ± 0.17
pdr5∆
  protein stability index: 2.46 ± 0.21
san1∆
  protein stability index: 1.74 ± 0.18
ubr1∆
  protein stability index: 1.86 ± 0.14

## SLTRDFEQCCKEKKELQ [YIL149C/MLP2]
doa10∆
  protein stability index: 2.87 ± 0.089
pdr5∆
  protein stability index: 3.01 ± 0.089
san1∆
  protein stability index: 3 ± 0.1
ubr1∆
  protein stability index: 3.14 ± 0.11

## PGNRNADNVDKILEQFE [FAS2]
doa10∆
  protein stability index: 1.63 ± 0.11
pdr5∆
  protein stability index: 1.53 ± 0.18
san1∆
  protein stability index: 2.5 ± 0.19
ubr1∆
  protein stability index: 2.5 ± 0.087

## MCGVIVKQYNKKWPQFY [SIN4]
doa10∆
  protein stability index: 1.65 ± 0.13
pdr5∆
  protein stability index: 1.99 ± 0.096
san1∆
  protein stability index: 1.62 ± 0.097
ubr1∆
  protein stability index: 1.74 ± 0.046

## LRAHTDDSRNPDCKIKI [PRE2]
doa10∆
  protein stability index: 2.86 ± 0.073
pdr5∆
  protein stability index: 2.92 ± 0.12
san1∆
  protein stability index: 2.86 ± 0.085
ubr1∆
  protein stability index: 2.77 ± 0.11

## DLEKLLEMSTEDFVKLA [RPS15]
doa10∆
  protein stability index: 3.11 ± 0.15
pdr5∆
  protein stability index: 3.13 ± 0.12
san1∆
  protein stability index: 3.44 ± 0.12
ubr1∆
  protein stability index: 3.28 ± 0.08

## YEFPIEGIEIYDRKKLP [RPC11]
doa10∆
  protein stability index: 3.16 ± 0.14
pdr5∆
  protein stability index: 3.01 ± 0.094
san1∆
  protein stability index: 1.91 ± 0.14
ubr1∆
  protein stability index: 3.3 ± 0.17

## DNEDSDNLFGETESSVS [SWI3]
doa10∆
  protein stability index: 3.48 ± 0.14
pdr5∆
  protein stability index: 3.07 ± 0.081
ubr1∆
  protein stability index: 2.93 ± 0.085

## NEDMVRRANFYKENEAM [SNF12]
doa10∆
  protein stability index: 3.33 ± 0.11
pdr5∆
  protein stability index: 3.48 ± 0.087
san1∆
  protein stability index: 3.39 ± 0.057
ubr1∆
  protein stability index: 3.48 ± 0.1

## LWDQDIAIAGTGQIEGL [COR1]
doa10∆
  protein stability index: 3.12 ± 0.089
pdr5∆
  protein stability index: 3.37 ± 0.077
san1∆
  protein stability index: 3.05 ± 0.055
ubr1∆
  protein stability index: 2.98 ± 0.05

## IRPTELRLPFSAAMSID [PRP8]
doa10∆
  protein stability index: 1.93 ± 0.049
pdr5∆
  protein stability index: 1.98 ± 0.037
san1∆
  protein stability index: 1.78 ± 0.057
ubr1∆
  protein stability index: 2.24 ± 0.037

## VHLSNGYKMIPGAKPLQ [FAS1]
doa10∆
  protein stability index: 1.74 ± 0.072
pdr5∆
  protein stability index: 2.02 ± 0.076
san1∆
  protein stability index: 1.8 ± 0.088
ubr1∆
  protein stability index: 1.81 ± 0.05

## GIKATNGVVIATEKKSS [PRE8]
doa10∆
  protein stability index: 2.91 ± 0.18
pdr5∆
  protein stability index: 2.89 ± 0.17
san1∆
  protein stability index: 2.52 ± 0.26
ubr1∆
  protein stability index: 3.09 ± 0.11

## SRGNGGKKVLNKNQLLK [POP1]
doa10∆
  protein stability index: 1.86 ± 0.14
pdr5∆
  protein stability index: 2.54 ± 0.11
san1∆
  protein stability index: 2.53 ± 0.14
ubr1∆
  protein stability index: 3.43 ± 0.11

## GYLFKVSALDKCIKYSE [ECM29]
doa10∆
  protein stability index: 3.08 ± 0.13
pdr5∆
  protein stability index: 2.11 ± 0.09
san1∆
  protein stability index: 1.95 ± 0.11
ubr1∆
  protein stability index: 2 ± 0.074

## FDFLMNMPNCDYLTLNK [RPN2]
doa10∆
  protein stability index: 2.76 ± 0.054
pdr5∆
  protein stability index: 2.31 ± 0.068
san1∆
  protein stability index: 2.07 ± 0.076
ubr1∆
  protein stability index: 1.74 ± 0.039

## GLSQTEAFGNIKIDAKP [MCD1]
doa10∆
  protein stability index: 2.07 ± 0.083
pdr5∆
  protein stability index: 2.87 ± 0.15
san1∆
  protein stability index: 1.77 ± 0.2
ubr1∆
  protein stability index: 2.48 ± 0.078

## TMYMEVYTAIYNYCVNK [CDC53]
doa10∆
  protein stability index: 1.63 ± 0.047
pdr5∆
  protein stability index: 1.55 ± 0.047
san1∆
  protein stability index: 1.51 ± 0.061
ubr1∆
  protein stability index: 1.7 ± 0.031

## LHANGASFFFMVMFMHM [COB]
doa10∆
  protein stability index: 1.75 ± 0.037
pdr5∆
  protein stability index: 1.36 ± 0.028
san1∆
  protein stability index: 1.37 ± 0.065
ubr1∆
  protein stability index: 1.38 ± 0.036

## LPSEDSRAQILQIHSRK [RPT5]
doa10∆
  protein stability index: 2.21 ± 0.072
pdr5∆
  protein stability index: 2.39 ± 0.049
san1∆
  protein stability index: 2.55 ± 0.064
ubr1∆
  protein stability index: 2.89 ± 0.04

## NATVNLAMEAILNELEV [YJR042W/NUP85]
doa10∆
  protein stability index: 2.7 ± 0.11
pdr5∆
  protein stability index: 3 ± 0.11
san1∆
  protein stability index: 2.58 ± 0.12
ubr1∆
  protein stability index: 2.55 ± 0.11

## STLHMLGYTHIAINFTV [RPP1]
doa10∆
  protein stability index: 1.5 ± 0.041
pdr5∆
  protein stability index: 1.39 ± 0.037
san1∆
  protein stability index: 1.45 ± 0.067
ubr1∆
  protein stability index: 1.55 ± 0.041

## FTNPSIVKVFHGAFMDI [RRP6]
doa10∆
  protein stability index: 1.16 ± 0.084
pdr5∆
  protein stability index: 1.57 ± 0.062
san1∆
  protein stability index: 1.63 ± 0.11
ubr1∆
  protein stability index: 1.38 ± 0.049

## RGNTKIHSMNENPTPEK [SIR3]
doa10∆
  protein stability index: 3.11 ± 0.085
pdr5∆
  protein stability index: 3.15 ± 0.11
san1∆
  protein stability index: 3.08 ± 0.056
ubr1∆
  protein stability index: 3.31 ± 0.067

## KDPVDFVRQAAMIALSM [RPN2]
doa10∆
  protein stability index: 1.42 ± 0.082
pdr5∆
  protein stability index: 2.21 ± 0.14
san1∆
  protein stability index: 1.81 ± 0.17
ubr1∆
  protein stability index: 1.97 ± 0.13
